How the values were obtained:
[1] = biological target: recombinant human desmoglein-1 (DSG-1), purified, full-length (human) (UniProt Q02413); assay: single-molecule force spectroscopy (AFM); AFM tips functionalized with DSG-1 against living S. aureus AD08
[2] = biological target: recombinant human desmoglein-1 (DSG-1), purified, full-length (human) (UniProt Q02413); assay: single-molecule force spectroscopy (AFM); DSG-1 tips against L. lactis SdrD^(+) in the presence of 1 mM EDTA (15 min incubation)
[3] = biological target: recombinant human desmoglein-1 (DSG-1), purified, full-length (human) (UniProt Q02413); assay: single-molecule force spectroscopy (AFM); DSG-1 tips against L. lactis SdrD^(+) after EDTA, with CaCl2 added to 10 mM (15 min incubation)
[4] = biological target: pPROX^∗ peptide (cysteine-bearing peptide based on the p_(PROX) sequence of DSG-1) (human); assay: single-molecule force spectroscopy (AFM); AFM tips carrying pPROX^∗ by a PEG27-maleimide linker against living L. lactis SdrD^(+); pulling speed 1 μm s^−1
[5] = biological target: recombinant human desmoglein-1 (DSG-1), purified, full-length (human) (UniProt Q02413); assay: dynamic force spectroscopy (AFM, SMFS); DSG-1 tips against L. lactis SdrD^(+); retraction speed 0.5, 1, 3, 5 and 10 μm s^−1; Bell-Evans fit; only adhesion forces of >1000 pN considered
[6] = biological target: recombinant human desmoglein-1 (DSG-1), purified, full-length (human) (UniProt Q02413); assay: single-molecule force spectroscopy (AFM); AFM tips functionalized with DSG-1 against living L. lactis SdrD^(+) on a polystyrene dish; PBS, room temperature; approach and retraction 1 μm s^−1, applied force 250 pN, dwell time 0 s

pPROX^∗ peptide (cysteine-bearing peptide based on the p_(PROX) sequence of DSG-1) (human), sequence (Q02413 other isoform, or with tags, fused parts or gaps): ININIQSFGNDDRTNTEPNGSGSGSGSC

“SdrD on the surface of Staphylococcus aureus AD08 (clinical isolate from an infected skin lesion of a patient with AD) (from UniProt Q2G0L4 36-1315) (natural protein)” was tested, and the rupture force (main peak) [1] was 1550 pN.

For “serine-aspartate repeat protein D (SdrD) expressed on the surface of Lactococcus lactis MG1363 (pKS80::sdrD) (from UniProt Q2G0L4 36-1315) (natural protein)”, the adhesion force with 1 mM EDTA [2] was 2160 pN, the adhesion force with 10 mM Ca^2+ [3] was 2600 pN and the adhesion frequency [4] was 33%. For the same substance, the rupture force [4] was 1810 pN, the koff [5] was 1.4e-07 s⁻¹ and the adhesion (rupture) force [6] was 2080 pN. For the same substance, the binding probability [6] was 49%.
